Laboratory results as given in the supplement of paper PMC10567573.

B1: MIA2 (parent)
chain: SVIEPVQESSFRSRKIAVEDENDL
B2: SLC19A2 (parent)
chain: IYPVWTYSYLVLLFPVFLATDYLR

Variants of: B1
Experiment: protein stability index of a GFP-peptide fusion (GPS, HEK-293T) (PSI 1-6); higher = more stable
Conditions: c terminus: a fixed tail appended
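Also: lentivirally expressed fusions sorted by FACS into six bins by GFP to DsRed ratio, PSI derived from sequencing read proportions per bin multiplied by bin number.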

Protein stability index, by site and new letter:
K15: S 5.61; T 5.11; V 5.43; W 4.44; Y 5.29
I16: A 4.72; C 4.17; D 5.68; E 5.19; F 5.12; G 5.42; H 4.28; K 5.01; L 5.13; M 5.42; N 5.6; P 5.04; Q 5.15; R 5.22; S 5.45; T 5.37; V 5.41; W 4.66; Y 4.98
A17: C 4.81; D 5.43; E 5.68; F 5.05; G 5.14; H 5.53; I 5.05; K 5.59; L 4.97; M 5.55; N 5.45; P 5.66; Q 5.44; R 4.77; S 4.86; T 5.09; V 5.3; W 4.92; Y 4.87
V18: A 5.35; C 5.03; D 4.18; E 5.53; F 5.36; G 5.18; H 5.36; I 5.3; K 5.63; L 4.56; M 4.43; N 5.1; P 5.32; Q 5.15; R 5.72; S 5.69; T 4.94; W 5.16; Y 5.21
E19: A 5.13; C 4.62; D 5.03; F 4.53; G 4.5; H 4.56; I 4.25; K 5.35; L 4.56; M 4.62; N 5.08; P 5.32; Q 5.33; R 4.51; S 5.31; T 5.02; V 5.03; W 4.15; Y 4.67
D20: A 4.63; C 4.89; E 5.72; F 3.83; G 5.21; H 4.35; I 4.64; K 5.13; L 4.42; M 4.8; N 5.57; P 3.94; Q 5.25; R 4.94; T 5.38; V 4.57; W 4.1; Y 4.18
E21: A 4.83; C 4.32; D 5.38; F 4.31; G 5.27; H 4.63; I 4.46; K 5.05; L 4.62; M 4.32; N 4.74; P 4.42; Q 5.29; R 4.7; S 5.23; T 5.19; V 4.9; W 3.85; Y 4.47
N22: A 5.47; C 5; D 5.84; E 5.08; F 4.96; G 5.04; H 5.43; I 4.89; K 5.04; L 4.8; M 4.74; P 4.96; Q 5.77; R 5.09; S 3.82; T 5.33; V 5.73; W 4.35; Y 4.53
D23: A 5.26; C 4.39; E 5.54; F 3.65; G 4.72; H 4.95; I 4.64; K 4.95; L 4.63; M 4.82; N 5.1; P 4.28; Q 5.83; R 5.07; S 5.2; T 4.71; V 5.1; W 3.86; Y 4.24
L24: A 5.43; C 5.32; D 5.26; E 5.67; F 5.19; G 5.75; H 5; I 4.66; K 5.12; M 5.31; N 5.67; P 5.42; Q 5.51; R 5.49; S 5.88; T 5.57; V 5.82; W 4.73; Y 4.92

Variants of: B2
Experiment: as above
Conditions: c terminus: a fixed tail appended

Protein stability index: each site, then its substitutions
I1: A 2.12; F 2.21; G 2.67; H 4.44; L 3.49; M 2.3; N 2.98; P 3.33; R 1.87; S 2.54; T 3.48; V 4.95; W 2.38; Y 1.63
Y2: A 3.21; D 2.77; E 2.56; F 3.09; G 1.97; H 2.29; I 4.61; K 2.44; L 2.15; M 3.15; P 2.62; Q 3.11; S 2.56; T 4.06; V 3.19; W 3.59
P3: A 3.47; C 3.34; E 2.5; G 3.79; H 3.02; K 2.02; L 3.98; N 2.57; S 3.26; W 3.05; Y 2.94
V4: A 2.73; C 2.33; D 2.85; E 3.43; F 3.35; G 3.35; H 3.32; I 3.46; K 2.96; L 3.73; M 2.76; N 3.44; Q 3.11; S 3.21; T 3.3; Y 2.91
W5: A 3.28; C 3.27; D 2.3; E 3.02; F 3.25; G 4.5; H 3.15; I 4.83; K 4.35; L 2.19; M 2.65; N 2.25; P 3.19; R 3.39; S 2.89; V 2.65; Y 2.72
T6: A 2.63; D 2.08; E 2.71; H 3.42; K 3.04; L 4.55; M 2.95; N 3.48; Q 2.73; R 2.39; S 2.86; V 2.9; Y 3.51
Y7: E 3.72; F 2.84; H 1.33; I 2.4; M 2.32; N 3.72; Q 2.58; R 3.07; T 2.58; W 3.7
S8: A 4.5; C 3.17; D 3.67; E 3.31; F 2.43; G 2.84; H 3.06; I 2.41; K 3.14; L 2.69; M 3.15; P 3.7; Q 3.59; R 3.57; W 2.99
Y9: C 4.17; D 3.8; E 2.2; F 1.75; H 2.97; I 3.67; K 2.81; L 2.46; M 2.97; N 3.02; Q 2.02; R 4.42; T 2.67; V 3.11
L10: D 4.06; E 3.11; G 3.23; H 3.75; I 2.9; K 1.93; M 2.85; N 4.14; P 2.29; Q 2.81; R 2.9; S 3.94; T 2.94; V 3.74; W 3.88; Y 3.63
V11: A 3.63; C 3.16; D 3.85; F 2.34; G 3.44; H 3.87; I 3.28; L 2.77; M 1.95; N 2.92; P 2.04; Q 4.14; W 4.19
L12: A 3.41; D 2.3; F 2.25; H 3.3
